Source: US20230220074A1 (Alector, published 2023)
Changes are numbered by the printed parent chain. Each block holds one binder with its values, some of them ahead of it.

Columns and labels:
[1] = biological target: T1, murine PILRA (mouse, UniProt Q2YFS3 32-302); test: flow cytometry, conditioned medium on 293 cells expressing the target
T1 construct: Ectopically expressed on 293 cells; also called mPILRA; mouse PILRA
Procedure: (§1) Antibodies against human PILRA were generated as follows. […] PILRA^{-/-} PILRB1^{-/-} PILRB2^{-/-} mice were immunized with human PILRA protein, and hybridomas prepared using standard methods. 300 conditioned media samples containing antibodies were assessed for binding to parental 293 cells or 293 cells ectopically expressing hPILRA, hPILRB, cPILRA, mPILRA, or mPILRB by FACS. […] Six antibodies were identified as human PILRA binders using a cutoff of greater than 5-fold binding. […] No antibody was identified that bound mouse PILRA.

[2] = biological target: T2, murine PILRB (mPILRB1) (mouse, UniProt Q2YFS2 29-224); test: flow cytometry, hybridoma conditioned medium on 293 cells expressing the target; MFI relative to 293 parental cells
T2 construct: whole, on cells; Ectopically expressed on 293 cells; also called mouse PILRB
T2 sequence (Q2YFS2 29-224): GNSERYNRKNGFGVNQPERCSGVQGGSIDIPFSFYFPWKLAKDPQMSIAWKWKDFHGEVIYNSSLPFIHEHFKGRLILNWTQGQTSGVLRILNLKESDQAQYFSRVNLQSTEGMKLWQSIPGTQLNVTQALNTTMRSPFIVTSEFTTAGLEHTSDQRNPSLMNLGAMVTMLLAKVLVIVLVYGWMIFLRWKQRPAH
Procedure: as §1

[3] = biological target: T3, human PILRB (human, UniProt Q9UKJ0 20-227); test: as above
T3 construct: Ectopically expressed on 293 cells; also called hPILRB
T3 sequence (Q9UKJ0 20-227): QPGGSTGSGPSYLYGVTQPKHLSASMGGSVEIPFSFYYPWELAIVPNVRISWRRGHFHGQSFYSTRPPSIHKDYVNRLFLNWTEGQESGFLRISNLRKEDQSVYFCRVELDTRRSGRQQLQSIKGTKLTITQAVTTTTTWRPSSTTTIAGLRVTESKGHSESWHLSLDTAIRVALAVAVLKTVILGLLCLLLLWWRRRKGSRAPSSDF
Procedure: as §1

[4] = biological target: T4, human PILRA (human, UniProt Q9UKJ1 20-303); test: as above
T4 construct: also called hPILRA
T4 sequence (Q9UKJ1 20-303): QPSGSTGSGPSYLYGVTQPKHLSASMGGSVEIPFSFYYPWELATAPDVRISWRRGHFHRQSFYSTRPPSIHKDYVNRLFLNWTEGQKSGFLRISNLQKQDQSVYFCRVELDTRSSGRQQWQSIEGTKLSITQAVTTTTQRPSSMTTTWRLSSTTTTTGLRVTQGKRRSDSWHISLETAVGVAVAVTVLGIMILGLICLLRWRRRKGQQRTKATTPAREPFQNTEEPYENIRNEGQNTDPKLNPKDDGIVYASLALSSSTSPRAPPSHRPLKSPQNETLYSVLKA
Procedure: as §1

[5] = biological target: T5, cynomolgus monkey PILRA (cynomolgus monkey); test: as above
T5 construct: Ectopically expressed on 293 cells; also called cPILRA
T5 sequence (chain, as listed by the source): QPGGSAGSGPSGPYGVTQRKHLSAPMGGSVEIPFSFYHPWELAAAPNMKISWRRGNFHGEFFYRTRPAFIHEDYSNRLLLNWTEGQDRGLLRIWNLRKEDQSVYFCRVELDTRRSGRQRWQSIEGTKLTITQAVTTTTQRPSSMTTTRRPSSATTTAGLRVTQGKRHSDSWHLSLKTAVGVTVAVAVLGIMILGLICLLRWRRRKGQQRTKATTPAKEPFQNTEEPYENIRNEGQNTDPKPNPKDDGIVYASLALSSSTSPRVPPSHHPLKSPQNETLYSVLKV
Procedure: as §1

[6] = biological target: T1, murine PILRA; test: as above
Procedure: as §1

[7] = biological target: T6, soluble human PILRA hIgG1 Fc construct (human); test: flow cytometry; blocking of PILRA Fc binding to human CD3+ T cells, 3 donors, average ± SEM
T6 construct: also called PILRA Fc; PILRA-Fc
T6 sequence (chain, as listed by the source limits assumed): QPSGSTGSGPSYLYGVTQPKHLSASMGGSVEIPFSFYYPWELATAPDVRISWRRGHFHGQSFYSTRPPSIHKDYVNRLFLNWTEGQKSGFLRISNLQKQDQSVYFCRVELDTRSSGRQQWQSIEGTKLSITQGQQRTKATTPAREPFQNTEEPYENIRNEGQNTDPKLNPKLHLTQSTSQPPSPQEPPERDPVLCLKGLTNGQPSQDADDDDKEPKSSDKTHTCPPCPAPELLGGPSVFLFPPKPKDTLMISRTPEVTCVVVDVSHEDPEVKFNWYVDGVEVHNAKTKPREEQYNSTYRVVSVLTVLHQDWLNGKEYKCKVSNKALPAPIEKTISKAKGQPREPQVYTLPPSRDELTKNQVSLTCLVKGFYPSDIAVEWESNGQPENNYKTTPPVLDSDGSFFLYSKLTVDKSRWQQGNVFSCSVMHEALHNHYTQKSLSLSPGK
Procedure: Purified anti-hPILRA antibodies were evaluated for their ability to block binding of PILRA Fc to human CD3+ T cells from 3 separate donors in order to calculate the ligand blocking potency of these antibodies.

T1 sequence (Q2YFS3 32-302): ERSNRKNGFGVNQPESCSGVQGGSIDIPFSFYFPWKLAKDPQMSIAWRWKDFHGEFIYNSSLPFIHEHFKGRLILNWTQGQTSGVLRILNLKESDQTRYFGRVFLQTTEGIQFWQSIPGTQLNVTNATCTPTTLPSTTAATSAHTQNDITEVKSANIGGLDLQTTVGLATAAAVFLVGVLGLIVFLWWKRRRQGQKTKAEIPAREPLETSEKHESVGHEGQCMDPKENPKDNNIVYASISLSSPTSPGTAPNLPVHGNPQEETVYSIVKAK

B1: hPA-001 (antibody, V domains shown)
VH: QVTLKESGPGILQPSQTLSLTCSFSGFSLTTFGMGVGWIRQPSGKGLEWLAHIWWDDDKYYNPALKSRLTISKDISKNQVFLKIANVDTADTATYYCARIEDYGNPFDYWGQGTTLTVSS
VL: DIQMNQSPSSLSASLGDTITITCHASQNIHVWLSWYQQKPGNIPKLLIYKASNLHTGVPSRFSGSGSGTGFTLTISSLQPEDIATYYCQQGQSYPLTFGAGTKLELK
notes: Mouse hybridoma antibody, tested as conditioned medium
binding result [1]: no binding (tested: cutoff of greater than 5-fold binding) | MFI relative to 293 parental cells [2]: 0.5 fold over 293 parental cells | MFI relative to 293 parental cells [3]: 1.3 fold over 293 parental cells | MFI relative to 293 parental cells [4]: 131 fold over 293 parental cells | MFI relative to 293 parental cells [5]: 0.5 fold over 293 parental cells | MFI relative to 293 parental cells [6]: 0.5 fold over 293 parental cells

B2: hPA-005 (antibody, V domains shown)
VH: QVILKESGPGILQSSQTLSLTCSFSGFSLSTFGMGVGWIRQPSGKGLESLAHIWWDDDKFYNPALKSRLTISKDTSKSQVFLKIANVDTADIATYYCTRIEDYGSYFAYWGQGTTLTVSS
VL: B1 VL with I2V, T18P, S34N, K39R, K45R, L96Y, A100G, L106I
notes: Mouse hybridoma antibody, tested as conditioned medium or purified
binding result [1]: no binding (tested: cutoff of greater than 5-fold binding) | IC50 [7]: 1.9 nM | MFI relative to 293 parental cells [2]: 0.5 fold over 293 parental cells | MFI relative to 293 parental cells [3]: 1.3 fold over 293 parental cells | MFI relative to 293 parental cells [4]: 104 fold over 293 parental cells | MFI relative to 293 parental cells [5]: 0.5 fold over 293 parental cells | MFI relative to 293 parental cells [6]: 0.4 fold over 293 parental cells

The next lines start with results.

IC50 [7]: 1.7 nM | MFI relative to 293 parental cells [2]: 0.6 fold over 293 parental cells | MFI relative to 293 parental cells [4]: 83.9 fold over 293 parental cells | MFI relative to 293 parental cells [6]: 0.6 fold over 293 parental cells
B3: hPA-004 (antibody, V domains shown)
VH: QVTLKESGPGMLQPSQTLSLACSFSGFSLNSFGVAVGWIRQPSGKGLEWLAHIWWDDDKSYNPALKSRLTISKDTSKNQVFLKLANVDTADTATYYCTRIADYGNHFDYWGQGTALTVSS
VL: B1 VL with I29S, S77G, S93T, L96F, A100S, L106I
notes: as for B2
binding result [1]: no binding (tested: cutoff of greater than 5-fold binding)

IC50 [7]: 0.75 nM | MFI relative to 293 parental cells [2]: 0.3 fold over 293 parental cells | MFI relative to 293 parental cells [3]: 1.2 fold over 293 parental cells | MFI relative to 293 parental cells [4]: 133 fold over 293 parental cells | MFI relative to 293 parental cells [5]: 0.3 fold over 293 parental cells | MFI relative to 293 parental cells [6]: 0.3 fold over 293 parental cells
B4: hPA-002 (antibody, V domains shown)
VH: B1 VH with K5Q, T30S, I75T, N86S, T92I, I100V
VL: B1 VL with S34N, L73V
notes: Mouse hybridoma antibody, tested as conditioned medium or purified; also called hPA-002 A647
binding result [1]: no binding (tested: cutoff of greater than 5-fold binding)
